# Source: the nanobody polyreactivity screen of Harvey et al. (2022)
# Assay: yeast display, Sf9 membrane polyspecificity reagent, FACS + sequencing; frameworks hold sequencing errors
# How it was run: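 A nanobody's polyreactivity label depends on the gate it was sorted from. Yeast display cells were stained with 10% biotinylated, detergent-solubilized Sf9 membrane reagent for 1 hour at 4 °C, enriched on streptavidin microbeads and sorted by FACS. The low and high (top ~1%) gates were set on anti-HA fluorescence for expression and streptavidin fluorescence for reagent binding.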
row,Sequence,polyreactivity (PSR sort gate)
1,QVQLVESGGGLVQAGGSLRLSCAASGSIFISYNMGWYGQAPGKERELVAANNYNGGRTNYADSVKGRFTISRDKAKNTVYLQINSLKPEDTAVYYCNAAYSYSIYDYWGQGTQVTVSS,low polyreactivity
2,QVQLVESGGGLVQAGGSLRLSCAASGRTFPGNAMGWYRQAPGKERELVAAINSRGSTYYADSVKGRFTISRDNAKHTVYLKMNSLKPEDTAVYYSAAYFGHYWRYYYWGQGTQVNVSS,high polyreactivity
3,QVQLVESGGGLVQAGGSLRLSCAASGISYTSYAMGWYRQAPGKERELVAAISSSGGSTYYADSVKGRFTISRDNAKNTVYLQMNSLKPEDTAVYYCIARPRSRSPRVEYDYWGQGTQVTVSS,high polyreactivity
4,QVQLVESGGGLVQAGGSLRLSCAASGSTLVWNAMGWYRQAPGKERELVAGITTSGGSTSYADSVKGRFTISRDNAKNTVYLQMNSLKQEDTAVYYCAVDAAIYTNKLDYWGQGTQVTVSS,low polyreactivity
5,QVQRVESGGGLVQAGGRLRLSCAASGRTFETNAMGWYRQAPGKERELVAAISRSGGSTRYADSVKGRFTISRDNAKNTVYLQMNSLKPEDTAVYYCAVRVGLGGGYGGQGTQVTVSS,high polyreactivity
6,QVQLVESGGGLVQAGGSLRLSCAASGSTCAANAMGWYRQAPGKERELVAGISESVDRTYADSVKGRFTISRDNAKNTVYLQMNSLKPEDTAVYYCKVGANVYLLYFPSRGGVYDYGYWGQGTQVTVSS,low polyreactivity
7,QVQLVESGGGLLQAGGSLRLSCAASGRTFVYYAMGWYRPAPGKERELVAAITSSGSRTYYADSVKGRFTISRDNAKNTVYLQMNSLKPEDTAVYYCAADYVAHGDYRVLYDYWGQGTQVTVSS,low polyreactivity
8,QVQLVESGGGLVQAGGSLRLSCAASGRTFVYNAMGWYRQAPGKERELVAAISSSGGSTRYADSVKGRFTISRDNAKNTVYLQMNSLKPEDTAVYYCNRLRYSNRYDSWGQGTQVTVSS,high polyreactivity
9,QVQLVESGGGLVQAGGSLRLSCAASGSIFQFYAMGWYRQAPGKERELVAVITTSGVSTYYADSVKGRFTISRDNAKNTVYLQMNSLKPEATAVYYCAADDYYLAGDYWGQGTQVTVSS,low polyreactivity
10,QVQLVESGGGLVQAGGSLRLSCAASGRTFQYYAMGWYRQAPGKERELVAAITSGGSTYYADSVKGRFTISRDNAKNTVYLQMNSLKTEDTAVYYCAADFLYYSSGGKMDYWGQGTQVTVSS,low polyreactivity
11,QVQLVESGGGLVQAGGSLRLSCAASGFTFRWYAMGWYRPAPGKERELVADISRGGSTNYADSVKGRFTISRDNAKNTVYLQMNSLKPEDTAVYYCAAVVYRATYRVGGYLWYYYWGQGTQVTVSS,high polyreactivity
12,QVQLVESGGGLVQAGGSLRLSCAASGFIFGRYAMGWYRQAPGKERELVAAISRSGARTYYADSVKGRFTISRDNAKNTVYLQMNSLKPEDTAVYYCARYQPRVSFDYWGQGTQVTVSS,high polyreactivity
13,PVQLVESGGGLVQAGGSLRLSCADSGSIFRKYARGWYRQAPGKERELVAAITYGGSSTYYADSVKGRFTISRDNAKKTVYLQRNSLKPQDTAVYYFINDRPSYPAYGHTQYVVQMDYWGQGTQVTVSS,low polyreactivity
14,QVQLVESGGGLVQAGGSLRLSCAASGRRFRWYVMGWYRQAPGKERELVARISSNVGSTYYADSVKGRFTISRDNAKNTVYLQMNSLKPEDTAVYYCAAGPPKYYYSNRYYWGQGTQVTVSS,high polyreactivity
15,QVQLVESGGGLVQAGGSLRLSCAASGRTISHNAMGWYRQPPGKESELVAAISSGGGSTYYGDSVKGRFTISRDNAKNTVYVQMNSLKPEDTAVYYCAAPSYGRSRGFGLGINKYDYWGQGTQVTVSS,high polyreactivity
16,QVQLVESGGGLVQAGGSLRLSCAASGRIFWYNAMGWSRQAPGKESELVAAISWRGSRTYYADSVKGRFTISRDNAKNTVYLQMNSLKPEDTAVYYCAADPDVYAYYGYDYWGQGTQVTVSS,high polyreactivity
17,QVQLQESGGGLVLAGGSLRLSCSASGNISFYGSMGWYRQAPGKESEFVATIDPGTNTNYADSVKDRFTISRDNAKNTVYLQMNSLKPEDTAVYYCAVEAGSDWPYRYWGQGTQVTVSS,low polyreactivity
18,QVQLVESGGGLVQAGGSLSLSCAASGNIFWGNAMGWYRQAPGKERELVAAITSIDSSTYYADSVKGRFTISRDNAKNTVYLQMNSLKPEDTAVYYCAADGDWYGYIWQSDDGYDSWGQGTQVTVSS,low polyreactivity
19,QVQLVESGGGLVQAGGSLRLSCAASGFIFGSYAMGWYRQAPGNERELVAAISDSGDSTYYADSVKGRFTISRDNAKNTVSLQLTRLKPEDTAVYYCNRGYRWRRYENYYWGQVTQVTVSS,high polyreactivity
20,QVQLVESGGGLVQAGGSLRLICAASGSILDGNTMGWYRQAPGKERELVAAITWDGTSTYFADSVKGRFTISRDNAKNTVYLQMNSLKPEDTAVYYCAATKGYSDPSTGYYAYIHYDYWGQGTQVTVSS,low polyreactivity
21,QVQLVESGGGLVQAGGSLRLSCAASGSIFYDNAMGWYRPAPGKERELVATIRGGGNTYYADSVKGRFTISRDNAKNTVYLQMNSLKPEDTAVYYCSKQSDFPGVPLVYGVYGYDYWGQGTQVTVSS,low polyreactivity
22,QVQLVESGGGLVQAGGSLRLSCAASGLTFYRNAMGWYRQAPGKERELVAAITSRGGSTYYADSVKGRFTISRDNAKNTVYLQMNSLKPEDTAVYYCAAYSTLITGRDYGYWGQGTQVTVSS,high polyreactivity

row,Sequence,polyreactivity (PSR sort gate)
1,QVQLVESGGGLVQAGGSLRLSCAASGSTIFENVMGWYRQAPGKEREFVAAINTSGGSTYYADSVKGRFTISRDNAKNTVYLQMNSLKPEDTAVYYCARDSYWEMDYWGQGTQVTVSS,low polyreactivity
2,QVQLVESGGGLVQAGGSLRLSCAPSGIIFRGNAMGWYRQAPGKEREFVAAISLRGSRTYYADSVKGRFTISRDNAKNTVYLQMNSLKQEDTAVYYCAATRPYRYNYWGQGTQVTVSS,high polyreactivity
3,QVQLVESGVCLVQAGGSLRLSCASSGRILSTYAMGWYRQPPGKERELVAAISSGGSTYYADSVKGRFTISRDNAKHTVDLQMNSLKPEDTAVYYCNARKKRGYSRPAFDYWGQGTQVTVSS,high polyreactivity
4,QVQLVESGGGLVQAGGSLRLSCAASGRTFVRYTMGWYRQAPGKERELVAAISGSGSSTFYADSVKGRFTISRDNAKNTVYLQMNSLKPVDTAVYYCAARVRRVARDPYDYWGQGTQVTVSS,high polyreactivity
5,PVQLVESGGGLVQAGGSLRLSCAAAGLTFPPNAMGWYRQAPGKERELVADSGGSTNYADSVKGRFTISRDNAKNTVYLQMNSLNPEDTAVYYCAVPPYSDGQWDDYWGQGTQVTVSS,low polyreactivity
6,QVQLVESGGVLVQAGGSLRLSCAASGRIFTRNAMGWYRQAPGKERELVASITRGGSTYYADSVKGRFTISRDNAKITVYLQMNCLKAEDTALYYCAAVFYDRGQRYNYWGQGTQVTVSS,high polyreactivity
7,QVQLVESGGGLVQAGGSLRLSCAASGFIFVGYAMGWYRQAPGKERELVAAISYSGGRTYYADSVKGRFTISRDNAKNTVYLQMNSLKPEDTAVYYCAAQSRYGGKFYYWGQGTQVTVSS,high polyreactivity
8,QVQLVESGRGLVQAGGSLRLSCAASGRIFKTYAMGWYRQAPGKERELVAAITTSGDSTYYADSVKGRFTISRDNAKNTVYLQMNSLKPEDTAVYYCAARPRVRSSYRYYYWGQGTQLTVSS,high polyreactivity
9,QVQLVESGGGLVQAGGSLRLSCAASGRIFRYYAMGWYRQAPGKERELDAGITGRGGRTYYADSVKGRFTISRDNAKNTVYLQMNSLKPEDTAVYYCAATVSPSYDYWGQGTQVTVSS,high polyreactivity
10,QVQLVESGGGLVQAGGSLRLSCAASGRTFHRYVMGWYRQAPGKERELVAAITRSGGITYYADSVKGRFTISRDNAKNTVYLQMNSLKPEDTAVYYCAKDDQTASGFDYWGQGTQVTVSS,low polyreactivity
11,QVQLVESGGCLVQAGGSLRLSCAASGFTFRWYTMGWYRQAPGKERELVAAITGSGCTTYYADSVKGRFTISRDYAKNSVYLQMNSLKPVDTAVYYCAVVTGSFRTRYTYYYLGQGTQVTVSS,high polyreactivity
12,QVQLVESGGGLVQAGGSLRLSCAASGFTLVKYVMGWYIQAPGKEREFVATIRRRGGNTYYADSVKGRFTISRDNAKNTVYLQMNSLKPEDTAVYYCAAKKRSDLRTGDMEYWGQGTQVTVSS,high polyreactivity
13,QVQLVESGGGLVQAGGSLRLAVLPPDLPSTLNDRGWYRQAPGKESELVAAITSGGNTYYADSVKGRFTISRDNAKNTVYLQMNSLKPEDTAVYYCAATYYWAWGGVYHSEFDYWGQGTQVTLSS,low polyreactivity
14,QVQLVESGGGLVQAGGSLRLSCAASGGTFNHYAMGWYRQAPGKERELVSSITNGASTYYADSVKGRFTISRDNAKNTVYLQMNSLKPEDTAVYYCAARTAVGPIRSYWYDYWGQGTQVTVSS,low polyreactivity
15,QVQLVESGGGLVQAGGSLRLSCAASGFIFPWYAMGWSRQAPGKERELVAIISWDTGSTYYADSVKGRFTISRDNAKNTVYLQMNSLKPEDTAVYYCVAYVGSTYSAPEYYWGQGTQVTVSS,low polyreactivity
16,QVQLVESRVGLVQAGGSLRLSCAASGIIFTLYAMGWYRQAPGKERELVAGIDASGGSTSYADSVKGRFTISRDNAKNTVYLQMNSLKPEVTAVYYCAARILPYGYDYWGQGTQVTVSS,low polyreactivity
17,QVQLQESGGGLVQAGGSLRLSCASSGYISQSSVMGWYRQAPGKEREFVASISYGATTYYADSVKGRFTISRDNAKNTVYLQTNSPKPEDTAVYYCAVWVKRGFSHRYWGQGTQVTVSS,high polyreactivity
18,QVQLVESGGGLVQAGGSLRLSCAASGRIRVQNDMGWYRQAPGKERELVAAIRSDGSPSYSDSVKGRFTISRDNAKNTVYLQMNSLKPEDTAVYYCAARIDWTGGEYDYWGQGTQVTVSS,low polyreactivity
19,QVQLVESGGGLVQAGGSLRLSCAASGSTSKYYAMGWYRQAPGKERELVAAITWSDVSTYYADSVKGRFTISRDNAKNTVYLQMNSLKPEDTAVYYCNAGYDYWGQGTQVTVSS,low polyreactivity
20,QVQLVESRGGLVQAGGRLRLSCAASGLIFYKYAMGWYRPAHGKERQLVAAITSGGGSTYYADSVKGRFTISRDNAKNTVYLQKNSLKPEDSAVYYCAATRPATYAAYDYWGHGTQVTVSS,high polyreactivity
21,QFQLVESGGGLVQAGGSLRLSCSASGSIFVSNAMGRSRQAPGKERELVAAISSSGDSTYYADSVKGRFTISRDNAKNTFYVQMNSLKPEDNAVYYCAAVGPWWFPEYDYWGQGTQVTVSS,low polyreactivity
